Test results published in article PMC10679507.

Assays:
Test in all cases: UV-vis
Details in all cases: room temperature; 0.4 M NaCl; 6-mix buffer (citric acid 5.48 mM; ADA 1.84 mM; MOPS 4.16 mM; TAPS 5.00 mM; CHES 3.24 mM; CAPS 5.56 mM); dark (unphotolyzed) state, lipid-reconstituted
[1] = molecular target: Asp250 (UniProt position 250, TYTIADVSSKV)
[2] = molecular target: Glu10 (UniProt position 10, GNATFENYIGL)
[3] = molecular target: Asp115 (UniProt position 115, LNWLIDVPMLL)

Work on “Sodium pump rhodopsin IaNaR (Indibacter alkaliphilus)” yielded a pKa [1] of 3.2, a pKa [2] of 4.1 and a pKa [3] of 5.5.
“Sodium pump rhodopsin IaNaR D115N (Indibacter alkaliphilus; D115N)” was tested, and the pKa [1] was 2.5 and the pKa [2] was 4.6.
In the case of “Sodium pump rhodopsin IaNaR D250N (Indibacter alkaliphilus; D250N)”, the pKa [2] is reported as 2.8 and the pKa [3] is reported as 5.0.
With “Sodium pump rhodopsin IaNaR E10Q/E159Q/R242Q (Indibacter alkaliphilus; E10Q;E159Q;R242Q)” the pKa [1] was 3.6 and the pKa [3] was 7.1.
Substance “Sodium pump rhodopsin IaNaR E10Q/R242Q (Indibacter alkaliphilus; E10Q;R242Q)” has a pKa [1] of 3.8 and a pKa [3] of 5.7.
For “Sodium pump rhodopsin IaNaR E159A (Indibacter alkaliphilus; E159A)”, the pKa [1] was 3.3 and the pKa [3] was 5.6.
“Sodium pump rhodopsin IaNaR E159Q (Indibacter alkaliphilus; E159Q)” was tested, and the pKa [1] was 3.1 and the pKa [2] was 3.7.
For “Sodium pump rhodopsin IaNaR H225A (Indibacter alkaliphilus; H225A)”, the pKa [1] was 3.0, the pKa [2] was 4.3 and the pKa [3] was 5.8.
For “Sodium pump rhodopsin IaNaR R242Q (Indibacter alkaliphilus; R242Q)”, the pKa [2] was 4.4 and the pKa [3] was 6.4.
